Measurements: paper PMC7948503, “Optimization of a peptide ligand for the adhesion GPCR ADGRG2 provides a potent tool to explore receptor biology” (The Journal of Biological Chemistry, 2020)
Non-standard residues stand in square brackets, D forms with d. Primed or numbered codes have the meaning given here. No end group written: not given here. Phe(4-Me) = Cc1ccc(C[C@H](N)C(=O)O)cc1; FITC′ = not defined here

Legend:
Assay in all cases: FRET or BRET; HEK293 cells transfected with Rluc-ADGRG2-ΔGPS-β WT or mutants, stimulated by increasing concentrations of FITC-conjugated VPM-p15; saturation curves fitted with GraphPad; each experiment repeated 6 times
Conditions in all cases: one partner purified
[1] = biological target: T1, Rluc-ADGRG2-ΔGPS-β wildtype (mouse, UniProt Q8CJ12-3 38-995)
T1 construct: also called WT; ADGRG2-ΔGPS-β WT; source: HEK293, transfected, on cells; not shown: Rluc, N-terminal, kept
T1 sequence (Q8CJ12 other isoform, or with tags, fused parts or gaps mutant): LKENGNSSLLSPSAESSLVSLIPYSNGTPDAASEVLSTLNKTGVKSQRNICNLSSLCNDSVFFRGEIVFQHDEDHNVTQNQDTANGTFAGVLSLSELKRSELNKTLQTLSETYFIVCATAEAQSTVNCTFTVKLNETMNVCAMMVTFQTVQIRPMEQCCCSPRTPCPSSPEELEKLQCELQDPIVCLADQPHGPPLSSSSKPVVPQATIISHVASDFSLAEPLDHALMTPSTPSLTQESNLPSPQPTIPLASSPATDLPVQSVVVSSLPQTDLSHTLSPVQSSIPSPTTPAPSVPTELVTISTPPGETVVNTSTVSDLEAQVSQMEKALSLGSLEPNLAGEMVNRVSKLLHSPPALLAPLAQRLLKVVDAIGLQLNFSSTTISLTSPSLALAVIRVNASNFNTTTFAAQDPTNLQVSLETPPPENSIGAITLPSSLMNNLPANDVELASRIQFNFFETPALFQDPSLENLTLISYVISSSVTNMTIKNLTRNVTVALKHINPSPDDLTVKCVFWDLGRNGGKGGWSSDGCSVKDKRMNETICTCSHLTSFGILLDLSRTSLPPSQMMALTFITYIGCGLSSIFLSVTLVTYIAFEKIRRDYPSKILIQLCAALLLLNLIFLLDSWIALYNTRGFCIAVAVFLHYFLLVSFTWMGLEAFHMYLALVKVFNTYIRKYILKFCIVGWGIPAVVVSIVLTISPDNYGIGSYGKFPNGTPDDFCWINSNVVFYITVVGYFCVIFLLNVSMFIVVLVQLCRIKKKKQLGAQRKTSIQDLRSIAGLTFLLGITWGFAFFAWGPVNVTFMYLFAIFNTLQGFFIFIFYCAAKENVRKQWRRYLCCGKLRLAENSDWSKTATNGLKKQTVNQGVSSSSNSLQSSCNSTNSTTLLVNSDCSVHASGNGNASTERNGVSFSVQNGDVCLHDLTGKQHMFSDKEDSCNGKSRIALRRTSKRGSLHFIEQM

Rluc-ADGRG2-ΔGPS-β F772A = biological target: T2, Rluc-ADGRG2-ΔGPS-β F772A (mouse, UniProt Q8CJ12-3 38-995, F772A)
T2 construct: ADGRG2 (GPR64), mouse, ADGRG2-ΔGPS-β: the entire ECD removed; source: HEK293, transfected, on cells; not shown: Rluc, N-terminal, kept
T2 sequence (Q8CJ12 other isoform, or with tags, fused parts or gaps F772A | F772A | F772A F772A): as the sequence (Q8CJ12 other isoform, or with tags, fused parts or gaps mutant) above, with F735A counted along it

Rluc-ADGRG2-ΔGPS-β C614A = biological target: T3, Rluc-ADGRG2-ΔGPS-β C614A (mouse, UniProt Q8CJ12-3 38-995, C614A)
T3 construct: ADGRG2 (GPR64), mouse, ADGRG2-ΔGPS-β: the entire ECD removed; source: HEK293, transfected, on cells; not shown: Rluc, N-terminal, kept
T3 sequence (Q8CJ12 other isoform, or with tags, fused parts or gaps C614A | C614A | C614A C614A): as the sequence (Q8CJ12 other isoform, or with tags, fused parts or gaps mutant) above, with C577A counted along it

Rluc-ADGRG2-ΔGPS-β L665A = biological target: T4, Rluc-ADGRG2-ΔGPS-β L665A (mouse, UniProt Q8CJ12-3 38-995, L665A)
T4 construct: ADGRG2 (GPR64), mouse, ADGRG2-ΔGPS-β: the entire ECD removed; source: HEK293, transfected, on cells; not shown: Rluc, N-terminal, kept
T4 sequence (Q8CJ12 other isoform, or with tags, fused parts or gaps L665A | L665A | L665A L665A): as the sequence (Q8CJ12 other isoform, or with tags, fused parts or gaps mutant) above, with L628A counted along it

Rluc-ADGRG2-ΔGPS-β F828A = biological target: T5, Rluc-ADGRG2-ΔGPS-β F828A (mouse, UniProt Q8CJ12-3 38-995, F828A)
T5 construct: ADGRG2 (GPR64), mouse, ADGRG2-ΔGPS-β: the entire ECD removed; source: HEK293, transfected, on cells; not shown: Rluc, N-terminal, kept
T5 sequence (Q8CJ12 other isoform, or with tags, fused parts or gaps F828A | F828A | F828A F828A): as the sequence (Q8CJ12 other isoform, or with tags, fused parts or gaps mutant) above, with F791A counted along it

Rluc-ADGRG2-ΔGPS-β V762A = biological target: T6, Rluc-ADGRG2-ΔGPS-β V762A (mouse, UniProt Q8CJ12-3 38-995, V762A)
T6 construct: ADGRG2 (GPR64), mouse, ADGRG2-ΔGPS-β: the entire ECD removed; source: HEK293, transfected, on cells; not shown: Rluc, N-terminal, kept
T6 sequence (Q8CJ12 other isoform, or with tags, fused parts or gaps V762A | V762A | V762A V762A): as the sequence (Q8CJ12 other isoform, or with tags, fused parts or gaps mutant) above, with V725A counted along it

Rluc-ADGRG2-ΔGPS-β L683A = biological target: T7, Rluc-ADGRG2-ΔGPS-β L683A (mouse, UniProt Q8CJ12-3 38-995, L683A)
T7 construct: ADGRG2 (GPR64), mouse, ADGRG2-ΔGPS-β: the entire ECD removed; source: HEK293, transfected, on cells; not shown: Rluc, N-terminal, kept
T7 sequence (Q8CJ12 other isoform, or with tags, fused parts or gaps L683A | L683A | L683A L683A): as the sequence (Q8CJ12 other isoform, or with tags, fused parts or gaps mutant) above, with L646A counted along it

Rluc-ADGRG2-ΔGPS-β F747A = biological target: T8, Rluc-ADGRG2-ΔGPS-β F747A (mouse, UniProt Q8CJ12-3 38-995, F747A)
T8 construct: ADGRG2 (GPR64), mouse, ADGRG2-ΔGPS-β: the entire ECD removed; source: HEK293, transfected, on cells; not shown: Rluc, N-terminal, kept
T8 sequence (Q8CJ12 other isoform, or with tags, fused parts or gaps F747A | F747A | F747A F747A): as the sequence (Q8CJ12 other isoform, or with tags, fused parts or gaps mutant) above, with F710A counted along it

Rluc-ADGRG2-ΔGPS-β V768A = biological target: T9, Rluc-ADGRG2-ΔGPS-β V768A (mouse, UniProt Q8CJ12-3 38-995, V768A)
T9 construct: ADGRG2 (GPR64), mouse, ADGRG2-ΔGPS-β: the entire ECD removed; source: HEK293, transfected, on cells; not shown: Rluc, N-terminal, kept
T9 sequence (Q8CJ12 other isoform, or with tags, fused parts or gaps V768A | V768A | V768A V768A): as the sequence (Q8CJ12 other isoform, or with tags, fused parts or gaps mutant) above, with V731A counted along it

Rluc-ADGRG2-ΔGPS-β F829A = biological target: T10, Rluc-ADGRG2-ΔGPS-β F829A (mouse, UniProt Q8CJ12-3 38-995, F829A)
T10 construct: ADGRG2 (GPR64), mouse, ADGRG2-ΔGPS-β: the entire ECD removed; source: HEK293, transfected, on cells; not shown: Rluc, N-terminal, kept
T10 sequence (Q8CJ12 other isoform, or with tags, fused parts or gaps F829A | F829A | F829A F829A): as the sequence (Q8CJ12 other isoform, or with tags, fused parts or gaps mutant) above, with F792A counted along it

Rluc-ADGRG2-ΔGPS-β I663A = biological target: T11, Rluc-ADGRG2-ΔGPS-β I663A (mouse, UniProt Q8CJ12-3 38-995, I663A)
T11 construct: ADGRG2 (GPR64), mouse, ADGRG2-ΔGPS-β: the entire ECD removed; source: HEK293, transfected, on cells; not shown: Rluc, N-terminal, kept
T11 sequence (Q8CJ12 other isoform, or with tags, fused parts or gaps I663A | I663A | I663A I663A): as the sequence (Q8CJ12 other isoform, or with tags, fused parts or gaps mutant) above, with I626A counted along it

Rluc-ADGRG2-ΔGPS-β S760A = biological target: T12, Rluc-ADGRG2-ΔGPS-β S760A (mouse, UniProt Q8CJ12-3 38-995, S760A)
T12 construct: ADGRG2 (GPR64), mouse, ADGRG2-ΔGPS-β: the entire ECD removed; source: HEK293, transfected, on cells; not shown: Rluc, N-terminal, kept
T12 sequence (Q8CJ12 other isoform, or with tags, fused parts or gaps S760A | S760A | S760A S760A): as the sequence (Q8CJ12 other isoform, or with tags, fused parts or gaps mutant) above, with S723A counted along it

Rluc-ADGRG2-ΔGPS-β I844A = biological target: T13, Rluc-ADGRG2-ΔGPS-β I844A (mouse, UniProt Q8CJ12-3 38-995, I844A)
T13 construct: ADGRG2 (GPR64), mouse, ADGRG2-ΔGPS-β: the entire ECD removed; source: HEK293, transfected, on cells; not shown: Rluc, N-terminal, kept
T13 sequence (Q8CJ12 other isoform, or with tags, fused parts or gaps I844A | I844A | I844A I844A): as the sequence (Q8CJ12 other isoform, or with tags, fused parts or gaps mutant) above, with I807A counted along it

Rluc-ADGRG2-ΔGPS-β N759A = biological target: T14, Rluc-ADGRG2-ΔGPS-β N759A (mouse, UniProt Q8CJ12-3 38-995, N759A)
T14 construct: ADGRG2 (GPR64), mouse, ADGRG2-ΔGPS-β: the entire ECD removed; source: HEK293, transfected, on cells; not shown: Rluc, N-terminal, kept
T14 sequence (Q8CJ12 other isoform, or with tags, fused parts or gaps N759A | N759A | N759A N759A): as the sequence (Q8CJ12 other isoform, or with tags, fused parts or gaps mutant) above, with N722A counted along it

Rluc-ADGRG2-ΔGPS-β I730A = biological target: T15, Rluc-ADGRG2-ΔGPS-β I730A (mouse, UniProt Q8CJ12-3 38-995, I730A)
T15 construct: ADGRG2 (GPR64), mouse, ADGRG2-ΔGPS-β: the entire ECD removed; source: HEK293, transfected, on cells; not shown: Rluc, N-terminal, kept
T15 sequence (Q8CJ12 other isoform, or with tags, fused parts or gaps I730A | I730A | I730A I730A): as the sequence (Q8CJ12 other isoform, or with tags, fused parts or gaps mutant) above, with I693A counted along it

Rluc-ADGRG2-ΔGPS-β F826A = biological target: T16, Rluc-ADGRG2-ΔGPS-β F826A (mouse, UniProt Q8CJ12-3 38-995, F826A)
T16 construct: ADGRG2 (GPR64), mouse, ADGRG2-ΔGPS-β: the entire ECD removed; source: HEK293, transfected, on cells; not shown: Rluc, N-terminal, kept
T16 sequence (Q8CJ12 other isoform, or with tags, fused parts or gaps F826A | F826A | F826A F826A): as the sequence (Q8CJ12 other isoform, or with tags, fused parts or gaps mutant) above, with F789A counted along it

With VS[Phe(4-Me)]GILLDLSRTSLP-{FITC′} [FITC-conjugated VPM-p15 (ADGRG2 Stachel peptide p15 T1V/F3Phe(4-Me))] the EC50 [1] was 936 nM, the EC50 (Rluc-ADGRG2-ΔGPS-β F772A) was 842 nM and the EC50 (Rluc-ADGRG2-ΔGPS-β C614A) was 1290 nM. The EC50 (Rluc-ADGRG2-ΔGPS-β L665A) was 796 nM, the EC50 (Rluc-ADGRG2-ΔGPS-β F828A) was 1170 nM and the EC50 (Rluc-ADGRG2-ΔGPS-β V762A) was 1190 nM. It also gave an EC50 (Rluc-ADGRG2-ΔGPS-β L683A) of 1160 nM, an EC50 (Rluc-ADGRG2-ΔGPS-β F747A) of 759 nM and an EC50 (Rluc-ADGRG2-ΔGPS-β V768A) of 1040 nM. It also gave an EC50 (Rluc-ADGRG2-ΔGPS-β F829A) of 323 nM, an EC50 (Rluc-ADGRG2-ΔGPS-β I663A) of 772 nM and an EC50 (Rluc-ADGRG2-ΔGPS-β S760A) of 1350 nM. It also gave an EC50 (Rluc-ADGRG2-ΔGPS-β I844A) of 1540 nM, an EC50 (Rluc-ADGRG2-ΔGPS-β N759A) of 1550 nM and an EC50 (Rluc-ADGRG2-ΔGPS-β I730A) of 1200 nM. The EC50 (Rluc-ADGRG2-ΔGPS-β F826A) was 1170 nM.
